From publication PMC10588359, “14‐3‐3 protein inhibits CaMKK1 by blocking the kinase active site with its last two C‐terminal helices” (Protein Science : A Publication of the Protein Society, 2023)
Each block holds one binder with its values, some of them ahead of it.

B1: pCaMKK2: CaMKK2_(93–517) D330A phosphorylated by PKA at all four sites (domain or fragment, human, UniProt Q96RR4 93-517, looked up)
chain: HLSGRKLSLQERSQGGLAAGGSLDMNGRCICPSLPYSPVSSPQSSPRLPRRPTVESHHVSITGMQDCVQLNQYTLKDEIGKGSYGVVKLAYNENDNTYYAMKVLSKKKLIRQAGFPRRPPPRGTRPAPGGCIQPRGPIEQVYQEIAILKKLDHPNVVKLVEVLDDPNEDHLYMVFELVNQGPVMEVPTLKPLSEDQARFYFQDLIKGIEYLHYQKIIHRDIKPSNLLVGEDGHIKIAAFGVSNEFKGSDALLSNTVGTPAFMAPESLSETRKIFSGKALDVWAMGVTLYCFVFGQCPFMDERIMCLHSKIKSQALEFPDQPDIAEDLKDLITRMLDKNPESRIVVPEIKLHPWVTRHGAEPLPSEDENCTLVEVTEEEVENSVKHIPSLATVILVKTMIRKRSFGNPFEGSRREERSLSAPGNLL
modifications: phosphoserine at 100, phosphothreonine at 145, phosphoserine at 495, phosphoserine at 511 (PKA; stoichiometric by LC-MS)
notes: Same construct as m3 after PKA phosphorylation; also called phosphorylated CaMKK2; source: E. coli BL21 (DE3), purified, phosphorylated by PKA in vitro, SEC
B3: Human 14‐3‐3γ (residues 1–235 lacking the C‐terminal 12‐residues‐long flexible tail) (domain or fragment, UniProt P61981 1-235, looked up)
chain: MVDREQLVQKARLAEQAERYDDMAAAMKNVTELNEPLSNEERNLLSVAYKNVVGARRSSWRVISSIEQKTSADGNEKKIEMVRAYREKIEKELEAVCQDVLSLLDNYLIKNCSETQYESKVFYLKMKGDYYRYLAEVATGEKRATVVESSEKAYSEAHEISKEHMQPTHPIRLGLALNYSVFYYEIQNAPEQACHLAKTAFDDAIAELDTLNEDSYKDSTLIMQLLRDNLTLWTS
notes: human 14-3-3γ, residues 1-235, lacking the C-terminal 12 residues; Homodimer; also called 14-3-3γ dimer; source: expressed and purified as described previously (Obsilova et al., 2004)
B7: pCaMKK1: CaMKK1_(67–480) D293A phosphorylated by PKA at all four sites (domain or fragment, human, UniProt Q8N5S9 67-480, looked up)
chain: SLSARKLSLQERPAGSYLEAQAGPYATGPASHISPRAWRRPTIESHHVAISDAEDCVQLNQYKLQSEIGKGAYGVVRLAYNESEDRHYAMKVLSKKKLLKQYGFPRRPPPRGSQAAQGGPAKQLLPLERVYQEIAILKKLDHVNVVKLIEVLDDPAEDNLYLVFDLLRKGPVMEVPCDKPFSEEQARLYLRDVILGLEYLHCQKIVHRDIKPSNLLLGDDGHVKIAAFGVSNQFEGNDAQLSSTAGTPAFMAPEAISDSGQSFSGKALDVWATGVTLYCFVYGKCPFIDDFILALHRKIKNEPVVFPEEPEISEELKDLILKMLDKNPETRIGVPDIKLHPWVTKNGEEPLPSEEEHCSVVEVTEEEVKNSVRLIPSWTTVILVKSMLRKRSFGNPFEPQARREERSMSAPGNL
modifications: phosphoserine at 74, phosphothreonine at 108, phosphoserine at 458, phosphoserine at 475 (PKA; stoichiometric by LC-MS)
notes: Same construct as m1 after PKA phosphorylation; also called phosphorylated CaMKK1; source: E. coli BL21 (DE3), purified, phosphorylated by PKA in vitro, SEC

Columns and labels:
[1] = target: T1, Dansyl‐labeled rat calmodulin (DANS‐CaM), Ca^2+-bound (rat, UniProt P0DP29 1-149, dansyl label (dansyl chloride; site not stated)); assay: fluorescence polarisation; 2 μM DANS-CaM titrated by 30 μM CaMKK proteins and their binary dilution series, with and without 60 μM 14-3-3γ; 10 mM HEPES–NaOH pH 7.4, 150 mM NaCl, 1 mM CaCl2, 0.1% Tween 20, 0.1% BSA; one-site-binding model; details: both partners purified
T1 construct: rat calmodulin, labeled with dansyl chloride; Assays in 1 mM CaCl2; also called dansyl-Ca^2+/CaM; DANS-labeled CaM; source: prepared as described previously (Holakovska et al., 2011), labeled by dansyl chloride, SEC

[2] = target: B3; assay: AUC; sedimentation velocity of mixtures of 0.06–6 μM pCaMKK1 or pCaMKK2 with 1.2 μM 14-3-3γ; direct modeling with the Lamm equation, Langmuir binding model, one pCaMKK on a 14-3-3γ homodimer; apparent KD; 50 mM Tris–HCl pH 7.5, 150 mM NaCl, 1 mM TCEP; 20°C; details: both partners purified
[3] = target: T2, Rat calmodulin, Ca^2+-bound (Ca^2+/CaM) (rat, UniProt P0DP29 1-149); assay: AUC; sedimentation velocity of CaMKK1 or CaMKK2 with Ca^2+/CaM (1:1 molar ratio); 50 mM Tris–HCl pH 7.5, 150 mM NaCl, 1 mM TCEP, 1 mM CaCl2; 20°C; details: both partners purified
T2 construct: rat calmodulin; Unlabelled CaM, used with 1 mM CaCl2 in the ultracentrifuge; source: prepared as described previously (Holakovska et al., 2011)

[4] = target: the molecule itself; assay: SEC-SAXS; in-line SEC-SAXS on Superdex 200 Increase 5/150 GL; complexes mixed at 1:2 molar ratio (pCaMKK:14-3-3γ); 50 mM Tris–HCl pH 7.5, 150 mM NaCl, 1 mM TCEP, 3% glycerol
[5] = target: B7; assay: AUC; sedimentation velocity of mixtures of 0.06–6 μM pCaMKK1 or pCaMKK2 with 1.2 μM 14-3-3γ; direct modeling with the Lamm equation, Langmuir binding model, one pCaMKK on a 14-3-3γ homodimer; apparent KD; 50 mM Tris–HCl pH 7.5, 150 mM NaCl, 1 mM TCEP; 20°C; details: both partners purified
[6] = target: B1; assay: as above; details: both partners purified
[7] = target: T3, dansyl-labeled calmodulin (DANS-CaM), Ca2+-bound (rat, UniProt P0DP29 1-149, dansyl label (dansyl chloride; site not stated)); assay: fluorescence polarisation; as a1 but with 60 μM 14-3-3γ present: 2 μM DANS-CaM titrated with CaMKK (30 μM and binary dilution series), 1 h incubation; 10 mM HEPES-NaOH pH 7.4, 150 mM NaCl, 1 mM CaCl2, 0.1% Tween 20, 0.1% BSA; one-site-binding model; details: both partners purified
T3 construct: rat calmodulin (CaM); The assay buffer held 1 mM CaCl2 (Ca2+/CaM); also called dansyl-Ca2+/CaM; source: prepared as described previously (Holakovska et al., 2011); labeled with dansyl chloride, SEC

[8] = target: T3, dansyl-labeled calmodulin (DANS-CaM), …; assay: fluorescence polarisation; 2 μM DANS-CaM titrated with CaMKK (30 μM and binary dilution series), 1 h incubation; 10 mM HEPES-NaOH pH 7.4, 150 mM NaCl, 1 mM CaCl2, 0.1% Tween 20, 0.1% BSA; one-site-binding model; details: both partners purified

Binder: B1
binding result [1]: binds
stoichiometry N [2]: 2 14-3-3γ protomers per pCaMKK

stoichiometry N [3]: 1
B2: CaMKK2_(93–517) D330A, unphosphorylated (domain or fragment)
chain: HLSGRKLSLQERSQGGLAAGGSLDMNGRCICPSLPYSPVSSPQSSPRLPRRPTVESHHVSITGMQDCVQLNQYTLKDEIGKGSYGVVKLAYNENDNTYYAMKVLSKKKLIRQAGFPRRPPPRGTRPAPGGCIQPRGPIEQVYQEIAILKKLDHPNVVKLVEVLDDPNEDHLYMVFELVNQGPVMEVPTLKPLSEDQARFYFQDLIKGIEYLHYQKIIHRDIKPSNLLVGEDGHIKIAAFGVSNEFKGSDALLSNTVGTPAFMAPESLSETRKIFSGKALDVWAMGVTLYCFVFGQCPFMDERIMCLHSKIKSQALEFPDQPDIAEDLKDLITRMLDKNPESRIVVPEIKLHPWVTRHGAEPLPSEDENCTLVEVTEEEVENSVKHIPSLATVILVKTMIRKRSFGNPFEGSRREERSLSAPGNLL
notes: also called Ca^2+/CaM-dependent protein kinase kinase 2; Not-P CaMKK2; source: E. coli BL21 (DE3), purified

Binder: B3
stoichiometry N [4]: 2
Kd [5]: 21 ± 3 nM
Kd [6]: 60 ± 15 nM

Kd [7]: 630 ± 70 nM
Kd [8]: 600 ± 110 nM
B4: CaMKK1(67-480) D293A, unphosphorylated (domain or fragment)
chain: SLSARKLSLQERPAGSYLEAQAGPYATGPASHISPRAWRRPTIESHHVAISDAEDCVQLNQYKLQSEIGKGAYGVVRLAYNESEDRHYAMKVLSKKKLLKQYGFPRRPPPRGSQAAQGGPAKQLLPLERVYQEIAILKKLDHVNVVKLIEVLDDPAEDNLYLVFDLLRKGPVMEVPCDKPFSEEQARLYLRDVILGLEYLHCQKIVHRDIKPSNLLLGDDGHVKIAAFGVSNQFEGNDAQLSSTAGTPAFMAPEAISDSGQSFSGKALDVWATGVTLYCFVYGKCPFIDDFILALHRKIKNEPVVFPEEPEISEELKDLILKMLDKNPETRIGVPDIKLHPWVTKNGEEPLPSEEEHCSVVEVTEEEVKNSVRLIPSWTTVILVKSMLRKRSFGNPFEPQARREERSMSAPGNL
notes: source: E. coli BL21 (DE3), purified

stoichiometry N [3]: 1
B5: CaMKK1_(67–480) D293A, unphosphorylated (domain or fragment)
chain: SLSARKLSLQERPAGSYLEAQAGPYATGPASHISPRAWRRPTIESHHVAISDAEDCVQLNQYKLQSEIGKGAYGVVRLAYNESEDRHYAMKVLSKKKLLKQYGFPRRPPPRGSQAAQGGPAKQLLPLERVYQEIAILKKLDHVNVVKLIEVLDDPAEDNLYLVFDLLRKGPVMEVPCDKPFSEEQARLYLRDVILGLEYLHCQKIVHRDIKPSNLLLGDDGHVKIAAFGVSNQFEGNDAQLSSTAGTPAFMAPEAISDSGQSFSGKALDVWATGVTLYCFVYGKCPFIDDFILALHRKIKNEPVVFPEEPEISEELKDLILKMLDKNPETRIGVPDIKLHPWVTKNGEEPLPSEEEHCSVVEVTEEEVKNSVRLIPSWTTVILVKSMLRKRSFGNPFEPQARREERSMSAPGNL
notes: Cloned into pRSFDuet-1; purification as in Psenakova et al., 2018; also called Ca^2+/CaM-dependent protein kinase kinase 1; Not-P CaMKK1; source: E. coli BL21 (DE3), purified

Kd [8]: 2160 ± 300 nM
B6: pCaMKK1: CaMKK1(67-480) D293A phosphorylated by PKA at four sites (domain or fragment)
chain: SLSARKLSLQERPAGSYLEAQAGPYATGPASHISPRAWRRPTIESHHVAISDAEDCVQLNQYKLQSEIGKGAYGVVRLAYNESEDRHYAMKVLSKKKLLKQYGFPRRPPPRGSQAAQGGPAKQLLPLERVYQEIAILKKLDHVNVVKLIEVLDDPAEDNLYLVFDLLRKGPVMEVPCDKPFSEEQARLYLRDVILGLEYLHCQKIVHRDIKPSNLLLGDDGHVKIAAFGVSNQFEGNDAQLSSTAGTPAFMAPEAISDSGQSFSGKALDVWATGVTLYCFVYGKCPFIDDFILALHRKIKNEPVVFPEEPEISEELKDLILKMLDKNPETRIGVPDIKLHPWVTKNGEEPLPSEEEHCSVVEVTEEEVKNSVRLIPSWTTVILVKSMLRKRSFGNPFEPQARREERSMSAPGNL
modifications: phosphoserine at 74, phosphothreonine at 108, phosphoserine at 458, phosphoserine at 475
notes: also called 4xPhosphorylated CaMKK1; source: E. coli BL21 (DE3), purified; phosphorylated with PKA, then SEC

Binder: B7
stoichiometry N [2]: 2 14-3-3γ protomers per pCaMKK
